Km and kcat data for one protein are collected here from article PMC428907.

The term Km denotes the concentration of substrate that gives half-maximal velocity. In general, kcat refers to the number of substrate molecules converted per active site and unit of time at saturation.

Substrate in data set [1]: Nc1nc2c(ncn2[C@H]2C[C@H](O)[C@@H](CO[P@](=O)(O)OP(=O)(O)O)O2)c(=O)[nH]1
Description: purified protein. The following applies: pH 9.4, 7.5 mM Mg2+ (optimal conditions), 37°C.

Substrate in data set [2]: Nc1nc2c([nH]c(=O)n2[C@H]2C[C@H](O)[C@@H](COP(=O)(O)OP(=O)(O)O)O2)c(=O)[nH]1
Kind of data set: purified protein. The following applies: pH 9.4, 7.5 mM Mg2+ (optimal conditions), 37°C.

B1: DR0975 protein (Deinococcus radiodurans R1 = ATCC 13939 = DSM 20539) (protein)
chain: MGRRDLLVAAGILRDRFGRVLLVGNDWQGHGRVRHTLPGGVVEHGETLPEALYREIYEETGLKLTGIKHMAYTVHIEDERRGERAIAVAFEATWEGLLNPADPDGFIVEARFCTVDEALDKLDSPPMREPLADYLNTGEPGRFYAFKGWDGRGGLRIPTLKPVVKDR
For the protein B1, in the data set “purified protein [1]”, the Km worked out at 110 µM and the kcat was 0.18 s⁻¹. Further, in the data set “purified protein [2]”, the Km is 170 µM and the kcat amounted to 0.13 s⁻¹.
